Source: publication PMC5433095 (mBio, 2017)

Columns and labels:
[1] = molecular target: T1, E1E2 glycoprotein complex on infectious cell culture-derived HCV particles (HCVcc) of strain JFH-1 (Hepatitis C virus genotype 2a, isolate …, UniProt Q99IB8); test: immunocapture of virus particles; conditions: one partner purified
T1 construct: source: concentrated HCVcc of infectious HCV strain JFH-1

[2] = molecular target: genotype 2a JFH1 E1E2 displayed on retrovirus-based HCV pseudoparticles (HCVpp) (Hepatitis C virus genotype 2a, isolate …, UniProt Q99IB8); test: immunocapture of virus particles; conditions: one partner purified

B1: MAb DAO5 IgG (antibody, V domains shown)
VH: EVQLQQSGPELVKPGASLKISCKTSGYTFTDFTFHWVKLSHGPSLEWIGTIKPSNGDTAYNQKFKGKATLSVDKSASTAHIEFRSLTSEDSAVYFCARFGGSYPYAMDYWGQGTSVIVSS
VL: DIVLTQSPATLSVTPGDRVSLSCRASQGIYNYVHWFQQKSHESPRLLIKYASQSISGIPSRFSGSGSGTDFTLSINSVESEDFGMYFCQQTNKWPLTFGAGTKLELK
binding result [1]: binds
binding result [2]: binds
